Test results taken from patent US20150239980A1 (NEOTOPE BOSCIENCES, published 2015).

Experiments:
[1] = target: T1, human MCAM domain 1 (amino acids 19-129), Fc-tagged (human, UniProt P43121 19-129); assay: ForteBio domain mapping as in Example 8
T1 construct: also called MCAM Fc domain 1
T1 sequence: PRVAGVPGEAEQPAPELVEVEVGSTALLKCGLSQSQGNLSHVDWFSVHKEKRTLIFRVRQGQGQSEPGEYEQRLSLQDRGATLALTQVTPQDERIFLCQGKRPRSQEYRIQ

[2] = target: T2, human MCAM domain 2 (amino acids 139-242), Fc-tagged (human, UniProt P43121 139-242); assay: ForteBio domain mapping as in Example 8
T2 sequence: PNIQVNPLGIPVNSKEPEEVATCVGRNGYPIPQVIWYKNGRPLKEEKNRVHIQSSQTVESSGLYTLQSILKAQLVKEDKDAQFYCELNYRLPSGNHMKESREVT

[3] = target: T3, Recombinant human Fc-tagged MCAM IgG1-2A (human MCAM domains 1 and 2, amino acids 19-242) (human, UniProt P43121 19-242); assay: ForteBio domain mapping as in Example 8
T3 construct: also called human MCAM IgG1-2A; MCAM Fc domains 1 and 2; not shown: human Fc tag
T3 sequence: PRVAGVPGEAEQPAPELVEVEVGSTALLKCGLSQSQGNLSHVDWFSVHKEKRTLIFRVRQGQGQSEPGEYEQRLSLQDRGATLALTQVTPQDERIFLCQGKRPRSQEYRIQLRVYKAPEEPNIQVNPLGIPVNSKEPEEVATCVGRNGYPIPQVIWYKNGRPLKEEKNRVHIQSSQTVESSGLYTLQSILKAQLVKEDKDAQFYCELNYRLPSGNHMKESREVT

[4] = target: T4, human MCAM domain 3 (amino acids 244-321), Fc-tagged (human, UniProt P43121 244-321); assay: ForteBio domain mapping as in Example 8
T4 construct: also called domain 3 of the human MCAM protein
T4 sequence: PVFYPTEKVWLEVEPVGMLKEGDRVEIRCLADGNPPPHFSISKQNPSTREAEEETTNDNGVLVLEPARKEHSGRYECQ

[5] = target: T5, human MCAM (melanoma cell adhesion molecule) expressed on transfected CHO cells (human, UniProt P43121 24-646); assay: laminin/FACS on hMCAM CHO cells, competitor laminin 411; Expt#2; vs rodent 1749
T5 construct: also called hMCAM; CD146
T5 chain: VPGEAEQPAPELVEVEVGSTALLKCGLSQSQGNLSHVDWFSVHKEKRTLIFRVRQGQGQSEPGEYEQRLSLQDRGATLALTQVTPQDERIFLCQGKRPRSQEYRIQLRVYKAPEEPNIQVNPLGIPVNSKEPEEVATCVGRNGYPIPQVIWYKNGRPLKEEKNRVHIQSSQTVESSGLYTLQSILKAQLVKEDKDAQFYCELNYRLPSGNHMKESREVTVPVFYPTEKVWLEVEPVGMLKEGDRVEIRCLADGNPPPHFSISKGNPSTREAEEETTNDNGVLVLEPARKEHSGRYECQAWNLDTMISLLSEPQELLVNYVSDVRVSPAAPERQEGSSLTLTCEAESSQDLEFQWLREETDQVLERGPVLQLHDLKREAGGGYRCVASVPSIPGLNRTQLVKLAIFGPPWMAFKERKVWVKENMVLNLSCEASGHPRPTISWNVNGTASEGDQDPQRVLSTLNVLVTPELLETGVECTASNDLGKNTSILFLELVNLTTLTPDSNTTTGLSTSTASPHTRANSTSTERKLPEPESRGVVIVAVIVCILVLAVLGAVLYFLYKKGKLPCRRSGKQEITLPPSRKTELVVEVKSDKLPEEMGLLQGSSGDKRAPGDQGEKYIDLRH
Protocol: Following incubation for 30-45 minutes, the cells were washed and anti-laminin conjugated to AF650 (NovusBio) was added to detect the bound laminin. The cells were run on a flow cytometer to measure the laminin binding signal.

recombinant hMCAM-His = target: T6, recombinant hMCAM-His (human, UniProt P43121 24-559); assay: competitive ELISA on hMCAM-His, competitor biotinylated rodent or chimeric 1749; vs rodent 1749
T6 construct: not shown: His tag
T6 chain: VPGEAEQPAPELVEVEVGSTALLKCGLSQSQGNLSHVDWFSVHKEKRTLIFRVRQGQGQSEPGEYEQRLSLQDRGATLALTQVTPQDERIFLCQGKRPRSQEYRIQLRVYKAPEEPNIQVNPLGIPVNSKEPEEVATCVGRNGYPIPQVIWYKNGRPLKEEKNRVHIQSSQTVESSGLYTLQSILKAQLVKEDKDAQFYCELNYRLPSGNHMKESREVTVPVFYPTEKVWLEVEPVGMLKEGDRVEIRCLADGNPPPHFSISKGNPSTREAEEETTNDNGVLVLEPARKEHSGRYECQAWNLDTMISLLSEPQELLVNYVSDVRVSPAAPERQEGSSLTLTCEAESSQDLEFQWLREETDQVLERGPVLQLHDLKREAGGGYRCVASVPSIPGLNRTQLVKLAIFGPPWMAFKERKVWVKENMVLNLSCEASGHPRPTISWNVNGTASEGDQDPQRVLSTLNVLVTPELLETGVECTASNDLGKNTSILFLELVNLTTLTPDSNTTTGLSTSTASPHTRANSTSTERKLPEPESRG

[6] = target: T5, human MCAM (melanoma cell adhesion …); assay: flow cytometry, human MCAM CHO cells preincubated with antibody, competitor recombinant human laminin 411 at 20 ug/ml
Protocol: The 87 independent mouse fusion clones and 26 independent rat fusion clones described in Example 10 above as being capable of (i) binding to human MCAM, and (ii) blocking the interaction between human MCAM and the α-4 chain of laminin were further characterized as follows. First, IC50 quantitation for the ability of the monoclonal antibody to block the binding of human MCAM to the α-4 chain of laminin was determined as follows. CHO cells expressing human MCAM were incubated with an anti-human MCAM antibody (at various concentrations) for 30 minutes at 4 degrees Celsius. […] Unbound laminin was then washed away, and the laminin bound to the surface of the cells was detected with fluorescently labeled anti-laminin antibodies. After washing, the amount of laminin bound to the surface was detected by flow cytometry, and IC50s were calculated based on the mean fluorescent intensity.
These six anti-MCAM monoclonal antibody clones are herein referred to as (i) the mouse anti-human MCAM monoclonal clones 1174.1.3, 1414.1.2, 1415.1.1, and 1749.1.3, and (ii) the rat anti-human MCAM monoclonal antibody clones 2120.4.19 and 2107.4.10. […] As such, each of these specific monoclonal antibodies was very capable of binding to human MCAM and inhibiting the interaction of cell-expressed human MCAM with its α-4 laminin binding ligand.

binding result [1]: no binding
binding result [2]: no binding
binding result [3]: no binding
binding result [4]: binds
fold over rodent (blocking, laminin/FACS) [5]: 1 fold
fold over rodent (competitive ELISA) (recombinant hMCAM-His): 1 fold
IC50 [6]: 0.545 µg/mL
B1: mouse anti-human MCAM monoclonal antibody clone 1749.1.3 (antibody, V domains shown)
VH: DVKLVESGGDLVKPGGSLKLSCAASGFTFSSYIMSWVRQTPEKRLEWVATISSGGSSTYYPDSVKGRFTISRDNAKNTLYLQMSSLKSEDTAMYYCTRDDDYDVKVFAYWGQGTLVTVSA
VL: DIVMSQSPSSLAVSAGEKVTMNCKSSRSLLNSRIRKNYLAWYQQKPGQSPKLLIYWASTRESGVPDRFTGSGSGTDFTLTISSVQAEDLAVYYCKQSYNLLTFGAGTKLELK
notes: mouse hybridoma antibody; also called rodent 1749; murine 1749.1.3 anti-MCAM antibody
